Test results taken from US20180094275A1 (AGRESEARCH, published 2018).

T1: Y2H BZR1-AD (BZR1 fused to GAL4 activation domain) (Arabidopsis thaliana)
T1 construct: Prey fusion; also called pDEST22-BZR1
T1 chain: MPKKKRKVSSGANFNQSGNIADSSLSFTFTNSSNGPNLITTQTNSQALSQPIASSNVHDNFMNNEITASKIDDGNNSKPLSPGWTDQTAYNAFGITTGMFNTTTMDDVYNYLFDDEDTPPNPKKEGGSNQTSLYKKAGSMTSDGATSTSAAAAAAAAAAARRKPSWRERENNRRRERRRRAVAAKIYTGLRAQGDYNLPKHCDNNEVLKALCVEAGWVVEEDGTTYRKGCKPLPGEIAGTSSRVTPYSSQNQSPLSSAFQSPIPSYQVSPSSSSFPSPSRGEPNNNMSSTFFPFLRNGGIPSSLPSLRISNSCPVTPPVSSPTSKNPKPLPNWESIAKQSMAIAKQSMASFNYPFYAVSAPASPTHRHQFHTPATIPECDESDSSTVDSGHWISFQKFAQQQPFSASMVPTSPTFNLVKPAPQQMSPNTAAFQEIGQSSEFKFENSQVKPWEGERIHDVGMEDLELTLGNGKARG

T2: Y2H RGA1-AD (DELLA protein RGA1 fused to GAL4 activation domain)
T2 construct: Prey fusion tested against PPD1-DBD as bait; also called DELLA (RGA1)
T2 chain: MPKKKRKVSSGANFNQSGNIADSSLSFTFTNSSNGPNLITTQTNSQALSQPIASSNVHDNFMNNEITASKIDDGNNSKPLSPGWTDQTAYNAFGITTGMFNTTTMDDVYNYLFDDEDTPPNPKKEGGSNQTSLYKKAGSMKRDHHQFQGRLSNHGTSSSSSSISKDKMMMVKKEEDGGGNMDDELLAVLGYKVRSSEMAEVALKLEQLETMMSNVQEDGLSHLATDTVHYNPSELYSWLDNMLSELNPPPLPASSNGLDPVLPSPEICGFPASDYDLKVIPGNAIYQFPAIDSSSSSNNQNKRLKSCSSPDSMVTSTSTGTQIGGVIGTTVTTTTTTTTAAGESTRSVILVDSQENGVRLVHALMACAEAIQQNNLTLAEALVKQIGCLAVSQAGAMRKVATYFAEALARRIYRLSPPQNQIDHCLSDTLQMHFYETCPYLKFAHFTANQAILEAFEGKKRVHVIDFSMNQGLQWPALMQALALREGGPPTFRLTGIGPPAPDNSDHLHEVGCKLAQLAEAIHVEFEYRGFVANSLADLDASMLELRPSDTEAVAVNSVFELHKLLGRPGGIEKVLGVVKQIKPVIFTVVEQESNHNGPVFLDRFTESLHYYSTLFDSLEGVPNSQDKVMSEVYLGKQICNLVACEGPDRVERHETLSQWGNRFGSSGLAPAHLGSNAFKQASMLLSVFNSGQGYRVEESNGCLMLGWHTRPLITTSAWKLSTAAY

T3: Y2H PPD1-AD (PPD1 fused to GAL4 activation domain) (Arabidopsis thaliana)
T3 construct: Prey fusion; also called pDEST22-PPD1
T3 chain: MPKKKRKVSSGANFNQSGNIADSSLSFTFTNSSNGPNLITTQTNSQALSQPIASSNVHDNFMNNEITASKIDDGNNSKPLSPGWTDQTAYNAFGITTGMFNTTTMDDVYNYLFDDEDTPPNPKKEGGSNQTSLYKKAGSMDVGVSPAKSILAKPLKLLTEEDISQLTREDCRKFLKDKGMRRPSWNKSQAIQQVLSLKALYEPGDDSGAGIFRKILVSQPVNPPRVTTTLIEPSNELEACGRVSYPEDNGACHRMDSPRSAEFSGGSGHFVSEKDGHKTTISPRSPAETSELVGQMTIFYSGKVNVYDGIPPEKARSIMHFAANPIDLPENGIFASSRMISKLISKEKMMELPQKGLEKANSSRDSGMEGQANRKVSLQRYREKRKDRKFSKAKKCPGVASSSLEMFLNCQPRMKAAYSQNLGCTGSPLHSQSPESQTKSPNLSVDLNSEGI

T4: Y2H NINJA-AD (NINJA fused to GAL4 activation domain) (Arabidopsis thaliana)
T4 construct: Prey fusion; also called pDEST22-NINJA
T4 chain: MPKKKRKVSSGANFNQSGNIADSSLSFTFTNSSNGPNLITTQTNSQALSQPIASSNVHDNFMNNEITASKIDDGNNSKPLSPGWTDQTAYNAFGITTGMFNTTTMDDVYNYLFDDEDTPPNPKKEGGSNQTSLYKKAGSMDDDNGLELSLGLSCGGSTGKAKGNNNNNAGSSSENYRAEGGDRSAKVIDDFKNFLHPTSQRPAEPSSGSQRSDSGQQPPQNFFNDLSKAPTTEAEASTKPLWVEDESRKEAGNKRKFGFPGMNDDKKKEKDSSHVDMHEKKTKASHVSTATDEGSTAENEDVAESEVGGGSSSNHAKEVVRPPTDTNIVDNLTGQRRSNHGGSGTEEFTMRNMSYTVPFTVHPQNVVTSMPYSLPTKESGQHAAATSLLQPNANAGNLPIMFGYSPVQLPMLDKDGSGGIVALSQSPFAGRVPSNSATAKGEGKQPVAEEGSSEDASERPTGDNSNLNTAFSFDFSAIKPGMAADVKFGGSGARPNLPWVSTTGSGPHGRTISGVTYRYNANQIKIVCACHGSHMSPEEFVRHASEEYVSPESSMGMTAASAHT


What was measured:
[1] = biological target: T1, Y2H BZR1-AD (BZR1 fused to GAL4 …); assay: yeast two-hybrid (ProQuest, MaV203)
[2] = biological target: T2, Y2H RGA1-AD (DELLA protein RGA1 fused …); assay: yeast two-hybrid, PPD1-DBD as bait, selective medium with 15 mM 3AT
[3] = biological target: T3, Y2H PPD1-AD (PPD1 fused to GAL4 …); assay: yeast two-hybrid
[4] = biological target: T4, Y2H NINJA-AD (NINJA fused to GAL4 …); assay: yeast two-hybrid
[5] = biological target: T1, Y2H BZR1-AD (BZR1 fused to GAL4 …); assay: yeast two-hybrid

Row | Binder | binding result [1] | binding result [2] | binding result [3] | binding result [4] | binding result [5]
1 | Y2H PPD1-DBD (PPD1 fused to GAL4 DNA binding domain) (other, Bait fusion expressed in yeast MaV203; also called pDEST32-PPD1; PPD1 bait) MKLLSSIEEACNICRLKKLKCSKEKPKCAKCLKNNWECRYSPKTKRSPLTRAHLTEVESRLERLEQLFLLIFPRENLNMILKMDSLQDIKALLTGLFVQDNVNKDAVTDRLASVETDMPLTLRQHRISATSSSEESSNKGQRQLTVSSRSNQTSLYKKAGSMDVGVSPAKSILAKPLKLLTEEDISQLTREDCRKFLKDKGMRRPSWNKSQAIQQVLSLKALYEPGDDSGAGIFRKILVSQPVNPPRVTTTLIEPSNELEACGRVSYPEDNGACHRMDSPRSAEFSGGSGHFVSEKDGHKTTISPRSPAETSELVGQMTIFYSGKVNVYDGIPPEKARSIMHFAANPIDLPENGIFASSRMISKLISKEKMMELPQKGLEKANSSRDSGMEGQANRKVSLQRYREKRKDRKFSKAKKCPGVASSSLEMFLNCQPRMKAAYSQNLGCTGSPLHSQSPESQTKSPNLSVDLNSEGI | no binding | binds | binds | binds | –
2 | Y2H TPL-DBD (TOPLESS fused to GAL4 DNA binding domain) (other, Bait fusion; also called pDEST32-TPL) MKLLSSIEEACNICRLKKLKCSKEKPKCAKCLKNNWECRYSPKTKRSPLTRAHLTEVESRLERLEQLFLLIFPRENLNMILKMDSLQDIKALLTGLFVQDNVNKDAVTDRLASVETDMPLTLRQHRISATSSSEESSNKGQRQLTVSSRSNQTSLYKKAGSMSSLSRELVFLILQFLDEEKFKETVHKLEQESGFFFNMKYFEDEVHNGNWDEVEKYLSGFTKVDDNRYSMKIFFEIRKQKYLEALDKHDRPKAVDILVKDLKVFSTFNEELFKEITQLLTLENFRENEQLSKYGDTKSARAIMLVELKKLIEANPLFRDKLQFPTLRNSRLRTLINQSLNWQHQLCKNPRPNPDIKTLFVDHSCGPPNGARAPSPVNNPLLGGIPKAGGFPPLGAHGPFQPTASPVPTPLAGWMSSPSSVPHPAVSAGAIALGGPSIPAALKHPRTPPTNASLDYPSADSEHVSKRTRPMGISDEVNLGVNMLPMSFSGQAHGHSPAFKAPDDLPKTVARTLSQGSSPMSMDFHPIKQTLLLVGTNVGDIGLWEVGSRERLVQKTFKVWDLSKCSMPLQAALVKEPVVSVNRVIWSPDGSLFGVAYSRHIVQLYSYHGGEDMRQHLEIDAHVGGVNDISFSTPNKQLCVITCGDDKTIKVWDAATGVKRHTFEGHEAPVYSVCPHYKENIQFIFSTALDGKIKAWLYDNMGSRVDYDAPGRWCTTMAYSADGTRLFSCGTSKDGESFIVEWNESEGAVKRTYQGFHKRSLGVVQFDTTKNRYLAAGDDFSIKFWDMDAVQLLTAIDGDGGLQASPRIRFNKEGSLLAVSGNENVIKIMANSDGLRLLHTFENISSESSKPAINSIAAAAAAAATSAGHADRSANVVSIQGMNGDSRNMVDVKPVITEESNDKSKIWKLTEVSEPSQCRSLRLPENLRVAKISRLIFTNSGNAILALASNAIHLLWKWQRNERNATGKATASLPPQQWQPASGILMTNDVAETNPEEAVPCFALSKNDSYVMSASGGKISLFNMMTFKTMATFMPPPPAATFLAFHPQDNNIIAIGMDDSTIQIYNVRVDEVKSKLKGHSKRITGLAFSNVLNVLVSSGADAQLCVWNTDGWEKQRSKVLPLPQGRPNSAPSDTRVQFHQDQAHFLVVHETQLAIYETTKLECMKQWAVRESLAPITHATFSCDSQLVYASFMDATVCVFSSANLRLRCRVNPSAYLPASLSNSNVHPLVIAAHPQEPNMFAVGLSDGGVHIFEPLESEGKWGVAPPAENGSASGAPTAPSVGASASDQPQR | – | – | – | binds | binds
